# B1: PGT-135 (antibody, V domains shown)
# VH: QLQMQESGPGLVKPSETLSLSCTVSGDSIRGGEWGDKDYHWGWVRHSAGKGLEWIGSIHWRGTTHYKESLRRRVSMSIDTSRNWFSLRLASVTAADTAVYFCARHRHHDVFMLVPIAGWFDVWGPGVQVTVSS
# VL: EIVMTQSPDTLSVSPGETVTLSCRASQNINKNLAWYQYKPGQSPRLVIFETYSKIAAFPARFVASGSGTEFTLTINNMQSEDVAVYYCQQYEEWPRTFGQGTKVDIK
# B2: PGT-123 (antibody, V domains shown)
# VH: QLHLQESGPGLVKPPETLSLTCSVSGASINDAYWSWIRQSPGKRPEWVGYVHHSGDTNYNPSLKRRVTFSLDTAKNEVSLKLVDLTAADSATYFCARALHGKRIYGIVALGELFTYFYMDVWGKGTAVTVSS
# VL: SSMSVSPGETAKISCGKESIGSRAVQWYQQKPGQPPSLIIYNNQDRPAGVPERFSASPDFRPGTTATLTITNVDAEDEADYYCHIYDARGGTNWVFDRGTTLTVL
# Experiments:
# [1] = biological target: JR-FL gp120 ΔV3 (HIV-1 (isolate JR-FL)); assay: ELISA on coated gp120; EC50 by nonlinear regression
# [2] = biological target: HIV-1 JR-CSF Env G324A (HIV-1 isolate JR-CSF) (UniProt P20871); assay: cell-based or functional assay
# [3] = biological target: HIV-1 Env of isolate 93IN905 (HIV-1); assay: cell-based or functional assay
# [4] = biological target: HIV-1 JRFL envelope glycoprotein (Env) (HIV-1); assay: cell-based or functional assay
# [5] = biological target: HIV-1 APV13 envelope glycoprotein (Env) (HIV-1); assay: cell-based or functional assay
# [6] = biological target: HIV-1 APV6 envelope glycoprotein (Env) (HIV-1); assay: cell-based or functional assay
# [7] = biological target: HIV-1 92RW020 envelope glycoprotein (Env) (HIV-1); assay: cell-based or functional assay
# [8] = biological target: HIV-1 93UG077 envelope glycoprotein (Env) (HIV-1); assay: cell-based or functional assay
# [9] = biological target: HIV-1 MGRM-A-010 envelope glycoprotein (Env) (HIV-1); assay: cell-based or functional assay
# [10] = biological target: HIV-1 MGRM-C-026 envelope glycoprotein (Env) (HIV-1); assay: cell-based or functional assay
# [11] = biological target: HIV-1 JRCSF envelope glycoprotein (Env) (HIV-1) (UniProt P20871); assay: cell-based or functional assay
# [12] = biological target: HIV-1 MGRM-C-027 envelope glycoprotein (Env) (HIV-1); assay: cell-based or functional assay
# [13] = biological target: HIV-1 94UG103 envelope glycoprotein (Env) (HIV-1); assay: cell-based or functional assay
# [14] = biological target: HIV-1 93IN905 envelope glycoprotein (Env) (HIV-1); assay: cell-based or functional assay
# [15] = biological target: HIV-1 APV17 envelope glycoprotein (Env) (HIV-1); assay: cell-based or functional assay
# [16] = biological target: HIV-1 Env of isolate MGRM-A-006 (HIV-1); assay: cell-based or functional assay
# [17] = biological target: HIV-1 Env of isolate MGRM-A-009 (HIV-1); assay: cell-based or functional assay
# [18] = biological target: HIV-1 Env of isolate MGRM-A-004 (HIV-1); assay: cell-based or functional assay
# [19] = biological target: HIV-1 Env of isolate MGRM-A-008 (HIV-1); assay: cell-based or functional assay
# [20] = biological target: HIV-1 Env of isolate 92BR020 (HIV-1); assay: cell-based or functional assay
# [21] = biological target: HIV-1 Env of isolate 92UG037 (HIV-1); assay: cell-based or functional assay
# [22] = biological target: HIV-1 Env of isolate MGRM-A-012 (HIV-1); assay: cell-based or functional assay
# [23] = biological target: HIV-1 Env of isolate 92UG031 (HIV-1); assay: cell-based or functional assay
# [24] = biological target: HIV-1 Env of isolate VLGCA1 (HIV-1); assay: cell-based or functional assay
# [25] = biological target: HIV-1 Env of isolate 92WR026 (HIV-1); assay: cell-based or functional assay
# [26] = biological target: HIV-1 Env of isolate 93UG077 (HIV-1); assay: cell-based or functional assay
# [27] = biological target: HIV-1 Env of isolate MGRM-AE-002 (HIV-1); assay: cell-based or functional assay
# [28] = biological target: HIV-1 Env of isolate MGRM-A-005 (HIV-1); assay: cell-based or functional assay
# [29] = biological target: HIV-1 Env of isolate MGRM-A-011 (HIV-1); assay: cell-based or functional assay
# [30] = biological target: HIV-1 Env of isolate MGRM-A-014 (HIV-1); assay: cell-based or functional assay
# [31] = biological target: HIV-1 Env of isolate 92WR024 (HIV-1); assay: cell-based or functional assay
# [32] = biological target: HIV-1 Env of isolate 92WR020 (HIV-1); assay: cell-based or functional assay
# [33] = biological target: HIV-1 Env of isolate MGRM-A-013 (HIV-1); assay: cell-based or functional assay
# [34] = biological target: HIV-1 Env of isolate 93WR029 (HIV-1); assay: cell-based or functional assay
# [35] = biological target: HIV-1 Env of isolate MGRM-AE-001 (HIV-1); assay: cell-based or functional assay
# [36] = biological target: HIV-1 Env of isolate 94KE105 (HIV-1); assay: cell-based or functional assay
# [37] = biological target: HIV-1 Env of isolate MGRM-AE-003 (HIV-1); assay: cell-based or functional assay
# [38] = biological target: HIV-1 Env of isolate MGRM-A-003 (HIV-1); assay: cell-based or functional assay
# [39] = biological target: HIV-1 Env of isolate MGRM-A-001 (HIV-1); assay: cell-based or functional assay
binder,measurement,setting,value
B1,EC50,[1],0.2 µg/mL
same,Fold IC50 increase relative to wild-type,[2],0.4 fold
same,Primary Neutralization Index (B cell culture well 5343 B8),[3],43
same,Primary Neutralization Index (B cell culture well 5344 E16),[3],2.3
same,IC50 neutralization,[4],> 10 µg/mL
same,IC50 neutralization,[5],0.545 µg/mL
same,IC50 neutralization,[6],> 10 µg/mL
same,IC50 neutralization,[7],0.157 µg/mL
same,IC50 neutralization,[8],> 10 µg/mL
same,IC50 neutralization,[9],> 10 µg/mL
same,IC50 neutralization,[10],0.0123 µg/mL
same,IC50 neutralization,[11],0.113 µg/mL
same,IC50 neutralization,[12],> 10 µg/mL
same,IC50 neutralization,[13],> 10 µg/mL
same,IC50 neutralization,[14],0.0183 µg/mL
same,IC50 neutralization,[15],> 10 µg/mL
B2,Fold IC50 increase relative to wild-type,[2],14.5 fold
same,"IC50 (µg/mL), pseudovirus neutralization",[16],> 50 µg/mL
same,"IC50 (µg/mL), pseudovirus neutralization",[17],0.004 µg/mL
same,"IC50 (µg/mL), pseudovirus neutralization",[18],> 50 µg/mL
same,"IC50 (µg/mL), pseudovirus neutralization",[19],> 50 µg/mL
same,Primary Neutralization Index (B cell culture well 4858 P8),[20],2.8
same,"IC50 (µg/mL), pseudovirus neutralization",[21],0.023 µg/mL
same,"IC50 (µg/mL), pseudovirus neutralization",[22],0.192 µg/mL
same,IC50 neutralization,[4],0.0283 µg/mL
same,IC50 neutralization,[5],0.222 µg/mL
same,IC50 neutralization,[6],0.0328 µg/mL
same,"IC50 (µg/mL), pseudovirus neutralization",[23],> 50 µg/mL
same,"IC50 (µg/mL), pseudovirus neutralization",[24],> 50 µg/mL
same,"IC50 (µg/mL), pseudovirus neutralization",[25],0.012 µg/mL
same,"IC50 (µg/mL), pseudovirus neutralization",[26],0.028 µg/mL
same,"IC50 (µg/mL), pseudovirus neutralization",[27],> 50 µg/mL
same,"IC50 (µg/mL), pseudovirus neutralization",[28],> 50 µg/mL
same,IC50 neutralization,[7],0.0038 µg/mL
same,IC50 neutralization,[8],0.0303 µg/mL
same,IC50 neutralization,[9],0.492 µg/mL
same,"IC50 (µg/mL), pseudovirus neutralization",[29],> 50 µg/mL
same,IC50 neutralization,[10],0.0031 µg/mL
same,IC50 neutralization,[11],0.0423 µg/mL
same,IC50 neutralization,[12],0.0169 µg/mL
same,IC50 neutralization,[13],0.846 µg/mL
same,"IC50 (µg/mL), pseudovirus neutralization",[30],0.003 µg/mL
same,IC50 neutralization,[14],0.0071 µg/mL
same,IC50 neutralization,[15],0.18 µg/mL
same,"IC50 (µg/mL), pseudovirus neutralization",[31],> 50 µg/mL
same,"IC50 (µg/mL), pseudovirus neutralization",[32],0.002 µg/mL
same,"IC50 (µg/mL), pseudovirus neutralization",[33],0.565 µg/mL
same,"IC50 (µg/mL), pseudovirus neutralization",[34],> 50 µg/mL
same,"IC50 (µg/mL), pseudovirus neutralization",[35],> 50 µg/mL
same,"IC50 (µg/mL), pseudovirus neutralization",[36],0.024 µg/mL
same,"IC50 (µg/mL), pseudovirus neutralization",[37],> 50 µg/mL
same,"IC50 (µg/mL), pseudovirus neutralization",[38],0.495 µg/mL
same,"IC50 (µg/mL), pseudovirus neutralization",[39],> 50 µg/mL

# From patent US20200024330A1
